What was measured:
[1] = target: T1, albumin from human blood plasma (human, UniProt P02768 25-609); test: films incubated with human blood plasma, low pH elution, non-reducing SDS-PAGE
T1 construct: mature; Native plasma protein; also called human albumin

[2] = target: T2, albumin from rabbit serum (rabbit, UniProt P49065 25-608); test: fibers incubated with rabbit serum, low pH elution, non-reducing SDS-PAGE
T2 construct: mature; Native serum protein; the form follows from the source (serum); also called albumin (~70 kDa)
T2 sequence (P49065 25-608): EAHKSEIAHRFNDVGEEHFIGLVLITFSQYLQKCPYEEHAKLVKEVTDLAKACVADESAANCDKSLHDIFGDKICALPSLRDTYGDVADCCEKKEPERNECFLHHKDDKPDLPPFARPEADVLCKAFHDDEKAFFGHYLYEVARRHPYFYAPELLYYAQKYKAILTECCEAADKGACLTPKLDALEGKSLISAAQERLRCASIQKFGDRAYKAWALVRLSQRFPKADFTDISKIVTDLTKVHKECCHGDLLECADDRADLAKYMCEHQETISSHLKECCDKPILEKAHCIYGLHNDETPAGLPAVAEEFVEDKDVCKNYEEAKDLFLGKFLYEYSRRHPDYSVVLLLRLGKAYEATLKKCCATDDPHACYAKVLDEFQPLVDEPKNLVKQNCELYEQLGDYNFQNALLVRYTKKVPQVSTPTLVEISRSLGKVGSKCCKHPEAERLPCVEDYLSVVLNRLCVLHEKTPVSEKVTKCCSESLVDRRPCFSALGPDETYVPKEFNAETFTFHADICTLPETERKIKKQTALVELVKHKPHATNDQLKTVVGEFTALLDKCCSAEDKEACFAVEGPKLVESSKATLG

| Binder | binding result [1] | binding result [2] |
| --- | --- | --- |
| His6AbdQGRep4CT (designed binder, tested as films and fibers; also called Abd-Rep4CT; HisAbdQG4RepCT) MGSSGHHHHHHMLAEAKVLANRELDKYGVSDYYKNLINNAKTVEGVKALIDEILAALPLEALFQGPNSGQGGYGGLGQGGYGQGAGSSAAAAAAAAAAAAGGQGGQGQGGYGQGSGGSAAAAAAAAAAAAAAAGRGQGGYGQGSGGNAAAAAAAAAAAAAAAGQGGQGGYGRQSQGAGSAAAAAAAAAAAAAAGSGQGGYGGQGQGGYGQSSASASAAASAASTVANSVSRLSSPSAVSRVSSAVSSLVSNGQVNMAALPNIISNISSSVSASAPGASGCEVIVQALLEVITALVQIVSSSSVGYINPSAVNQITNVVANAMAQVMG | binds |  |
| Rep4CT (Protease 3C cleavage product of His6ZQGRep4CT) (other, made by cleaving His6ZQGRep4CT; also called GP-Rep4CT) GQGGYGGLGQGGYGQGAGSSAAAAAAAAAAAAGGQGGQGQGGYGQGSGGSAAAAAAAAAAAAAAAGRGQGGYGQGSGGNAAAAAAAAAAAAAAAGQGGQGGYGRQSQGAGSAAAAAAAAAAAAAAGSGQGGYGGQGQGGYGQSSASASAAASAASTVANSVSRLSSPSAVSRVSSAVSSLVSNGQVNMAALPNIISNISSSVSASAPGASGCEVIVQALLEVITALVQIVSSSSVGYINPSAVNQITNVVANAMAQVMG |  | binds |

From US20130316376A1 (SPIBER TECHNOLOGIES, published 2013)
